Square brackets hold non-standard residues; d marks the D form. Ends that are not written are not given here. pY = N[C@@H](Cc1ccc(OP(=O)(O)O)cc1)C(=O)O; Ahx = NCCCCCC(=O)O
T1: GST tagged N SH2 domain of PLCγ-1 (544–659) (human, UniProt P19174 544-659)
T1 sequence (looked up): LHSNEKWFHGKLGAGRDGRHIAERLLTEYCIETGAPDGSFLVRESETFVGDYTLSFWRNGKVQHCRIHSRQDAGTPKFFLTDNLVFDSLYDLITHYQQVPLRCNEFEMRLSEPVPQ

T2: GST tagged C SH2 domain of PLCγ-1 (663–759) (human, UniProt P19174 663-759)
T2 sequence (looked up): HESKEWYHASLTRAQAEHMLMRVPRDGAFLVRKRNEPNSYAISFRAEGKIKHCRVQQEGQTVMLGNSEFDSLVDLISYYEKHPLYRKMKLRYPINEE


Key:
[1] = target: CSK, His tagged (UniProt P41240); test: immobilised peptide pull-down, anti-CSK blot; settings: reference: unphosphorylated Y4507 peptide; sites Y4507
[2] = target: Grb2 SH2 domain, 58-159 (UniProt P62993); test: immobilised peptide pull-down, anti-GST blot; settings: reference: unphosphorylated Y4507 peptide; sites Y4507
[3] = target: PLCγ-1 C SH2 domain, 663-759 (UniProt P19174); test: immobilised peptide pull-down, anti-GST blot; settings: reference: unphosphorylated Y4507 peptide; sites Y4507
[4] = target: PLCγ-1 N SH2 domain, 544-659 (UniProt P19174); test: immobilised peptide pull-down, anti-GST blot; settings: reference: unphosphorylated Y4507 peptide; sites Y4507
[5] = target: Shp-2 (Shp2) SH2(C) domain (UniProt Q06124); test: immobilised peptide pull-down, anti-ubiquitin tag blot; settings: reference: unphosphorylated Y4507 peptide; sites Y4507
[6] = target: Shp-2 (Shp2) SH2(N) domain (UniProt Q06124); test: as above; settings: reference: unphosphorylated Y4507 peptide; sites Y4507
[7] = target: GST tagged SH2 domain of Grb2 (58–159) (human, UniProt P62993 58-159); test: pull-down
[8] = target: T1, GST tagged N SH2 domain of PLCγ-1 …; test: pull-down
[9] = target: T2, GST tagged C SH2 domain of PLCγ-1 …; test: pull-down

Row | binding against the reference [1] | binding against the reference [2] | binding against the reference [3] | binding against the reference [4] | binding against the reference [5] | binding against the reference [6] | binding result [7] | binding result [8] | binding result [9] | Molecule
1 | stronger | stronger | stronger | stronger | stronger | stronger | – | – | – | LDL receptor-related protein 1 (LRP1) NPXY4507 microdomain (from UniProt Q07954) pY4507 peptide
2 | – | – | – | – | – | – | binds | binds | binds | C[Ahx]TNFTNPV[pY]ATLY [NPXpY_(4507) microdomain of LRP1-CT, tyrosine-phosphorylated]

Source: paper PMC2862490 (Proteomics, 2009)
